Experimental data: the supplement of paper PMC10567573
± gives the standard deviation.

Test: protein stability index of a GFP-peptide fusion (GPS, HEK-293T) (PSI 1-6); higher = more stable
Settings: c terminus: a fixed tail appended
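Also: 24-mer peptide tiles fused after GFP, lentivirally expressed, FACS-sorted into six equal bins by GFP/DsRed ratio, decoded by Illumina sequencing, PSI is the read-weighted mean bin number.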

Sequence | protein stability index (treatment: DMSO) | protein stability index (treatment: MLN4924 1 uM, 8 h)
RRATSGGKWPQVLFFPEGTCSNKK [LPCAT4] | 3.72 ± 0.31 | 3.78 ± 0.13
RRCGKCFCDRCCSQKVPLRRMCFV [ZFYVE21] | 2.31 ± 0.45 | 2.31 ± 0.39
RRGGGPVFPAPVVGSGGATSGKLL [ZBTB22] | 4.104 ± 0.027 | 4.33 ± 0.29
RRLYHLEGFQRCDVARQLGKNNEF [PSD2] | 2.61 ± 0.43 | 2.8 ± 0.16
RRMAAEATEWQKAGAPPPSGSAVS [SRPK2] | 4.59 ± 0.42 | 4.68 ± 0.29
RRQARREAEADKPRRLGRLKYQAP [NOP53] | 4.5 ± 0.35 | 4.6 ± 0.24
RRRRIIINVGGIKYSLPWTTLDEF [KCNG1] | 2.48 ± 0.44 | 2.46 ± 0.59
RSGSPTVPIKPPCIPNGKENFSGG [CAMK2D] | 4.2 ± 0.2 | 4.32 ± 0.21
RSLQDGTREGFGHSTSLKVPLARS [LCOR] | 4.38 ± 0.27 | 4.37 ± 0.12
RSPDASPSRAPPSTQEPQSPREGE [GNAS] | 5.36 ± 0.12 | 5.42 ± 0.078
RSSGLVQRRTEASRNAADKERAAG [GOLPH3] | 5.11 ± 0.3 | 5.14 ± 0.33
RTMDIPRSVQNFRFFASSSLHHTS [ALDH8A1] | 2.43 ± 0.15 | 2.62 ± 0.2
RTPLMKAARAGHVCTVQFLISKGA [ANKRD17] | 2.27 ± 0.37 | 2.46 ± 0.33
RVGIFLDYEAGTLSFYNVTDRSHI [TRIM39] | 2.6 ± 0.77 | 2.26 ± 0.35
RVGKWHQDFPVKKRKKLSTWKQEL [ZNF75A] | 2.7 ± 0.29 | 2.92 ± 0.4
RVLSPLHRGPSGHTEASAQRSHMG | 4.1 ± 0.063 | 4.19 ± 0.16
RYSTNLSNHVDDFTTFRGTELSFL [EDNRA] | 2.58 ± 0.17 | 2.54 ± 0.21
SAAQTDPTTGYRRLLRFSSQIHNN [LOXL2] | 3.1 ± 0.2 | 3.23 ± 0.17
SAEEVRFPVSVTQQSPAAVSMETY [C2CD2L] | 4.52 ± 0.33 | 4.71 ± 0.14
SAENSVAKKEDKVPVKKQKTRTVF [NANOGP8] | 4.21 ± 0.33 | 4.29 ± 0.34
SAERYNPRTNQWSPVVAMTSRRSG [KLHL20] | 4.22 ± 0.061 | 4.43 ± 0.16
SAPATAKENAAAPSPVRAPAPSPA [PALM] | 5.18 ± 0.21 | 5.34 ± 0.17
SASEILYSAPPGDPLSTNYSLAPN [NFE2L1] | 4.16 ± 0.29 | 4.12 ± 0.28

Sequence | protein stability index (treatment: DMSO) | protein stability index (treatment: MLN4924 1 uM, 8 h)
SASEPQPASQAASSSSASADLLAG [SNAP91] | 5.51 ± 0.17 | 5.41 ± 0.19
SAVEGAPPARPRPRSPECRMIPGQ [IRX6] | 4.86 ± 0.24 | 4.96 ± 0.32
SCCFDPDSQRVASVSLDRCIKIWD [WDR88] | 2.44 ± 0.14 | 2.57 ± 0.36
SCDDLMGGGGLHSVGTYIIDLLTF [GFOD1] | 2.75 ± 0.72 | 2.41 ± 0.29
SCLRRRRHPPKVGDDSDLSEGFES [SMG5] | 5.02 ± 0.32 | 4.93 ± 0.058
SDKDKAVGIFNTVINPMLNPIIYS [OR3A1] | 2.54 ± 0.3 | 2.71 ± 0.25
SDKYPIQDTELPKAEECDTITLNC [EDARADD] | 5.25 ± 0.41 | 5.26 ± 0.21
SDLSRRSSSTMSKSEYMEIEEDMN [KCNA1] | 5.21 ± 0.33 | 5.38 ± 0.1
SDNILSPVMNGGVQTWTQPRLCYL [PDZK1] | 2.19 ± 0.31 | 2.46 ± 0.56
SDNLLVILKRKWWKYILLGLADVE [SLC35F2] | 2.38 ± 0.21 | 2.31 ± 0.73
SEDAVGGATLGQTTSEEAVGGATL [HDAC6] | 5.54 ± 0.15 | 5.18 ± 0.4
SELCIWLGSQIKSLCNLEESITSA [FAM98B] | 1.97 ± 0.23 | 2.55 ± 0.18
SEMLDITMKESLTTREIRRQEAIY [NET1] | 3.75 ± 0.18 | 3.91 ± 0.33
SESGADTISVNQTRVNLSSDTEST [DLC1] | 5.33 ± 0.4 | 5.3 ± 0.58
SESQLASTESDKPTTGRVYESDSS [C18orf25] | 5.5 ± 0.15 | 5.44 ± 0.26
SETPQETYRKVMNWKETLVFPPEV [STK38L] | 3.61 ± 0.53 | 3.7 ± 0.3
SEVEELNMSLTALREKLLEAEQSL [TEKT4] | 3.52 ± 0.35 | 3.87 ± 0.2
SEVFGPERMPPSGAARSFQEVTEP [PXN] | 4.77 ± 0.32 | 5.19 ± 0.21
SFRRNVGRVLLANSTQADEGKTKK [FBXO34] | 4.71 ± 0.46 | 4.85 ± 0.35
SFSSLEPDNEQLMEEVISPRQVSY [IQUB] | 4.29 ± 0.2 | 4.56 ± 0.22
SFVLKNFPALLSTGEFLKLPFERL [KLHL13] | 1.94 ± 0.42 | 2.07 ± 0.42
SGGYWVGMSTIRPNPGFSMLDFLS [APMAP] | 2.1 ± 0.14 | 2.32 ± 0.97
SGITIPKPPKPPDKPLMPYMRYSR [SMARCE1] | 2.68 ± 0.25 | 3.32 ± 0.23

Sequence | protein stability index (treatment: DMSO) | protein stability index (treatment: MLN4924 1 uM, 8 h)
SGLIQTVFISSYMVLAPVFGYLGD [SPNS1] | 3.5 ± 0.3 | 3.16 ± 0.22
SGSESDHTTRSSLRGPRERAPSER [DVL3] | 5.33 ± 0.32 | 5.39 ± 0.24
SHGVRNKCLQLLGNLGSLEKSVTK [INTS4] | 3.23 ± 0.27 | 3.28 ± 0.22
SIVAVGFHIFRTLEVNRLMGKLLQ [PKD2L1] | 3.03 ± 0.56 | 2.55 ± 0.5
SKLEERFGPDSKSSALACTLPTLP [NCF4] | 4.04 ± 0.19 | 4.21 ± 0.17
SLLDELMEVQHFRTIYHMFIAGLC [SOAT2] | 2.59 ± 0.55 | 2.49 ± 0.42
SLLKKPDGVKESTESSNTTIEDED [CAMK2D] | 5.52 ± 0.11 | 5.43 ± 0.19
SLNSTFGSTNLTGLFFPPQLNGTA [NFE2L1] | 2.52 ± 0.35 | 2.92 ± 0.38
SLQSCMHFQPNSPASDLEAALEAA [NANOGP8] | 4.6 ± 0.22 | 4.63 ± 0.27
SLRGRAWQYLSGGKVKLQQNPGKF [TBC1D10A] | 3.13 ± 0.52 | 2.94 ± 0.29
SLRRRGASAAARLGCNRQSWCLKR [TRIM14] | 3.28 ± 0.28 | 3.16 ± 0.58
SLSYTVLIVGRIAIGVSISLSSIA [SLC2A12] | 3.02 ± 0.43 | 3.37 ± 0.23
SLVLPWSFPLEWAPQNLTRWTFEK [TOR1AIP2] | 2.14 ± 0.44 | 2.29 ± 0.32
SNEWKTVVGGAMFFIGFTALVIMW [COX4I1] | 3.09 ± 0.14 | 3.06 ± 0.27
SNRGAYVKLGPALTPHIVQYQANK [PPEF2] | 2.9 ± 0.38 | 2.99 ± 0.41
SPEPGTPAAPTPESFTVHFLPLNS [DNAAF3] | 3.55 ± 0.35 | 3.5 ± 0.22
SPPEASPGPPAAPRARRRLGSGPD [PWWP2B] | 5.22 ± 0.39 | 5.47 ± 0.31
SPVTATLSDEDDGFVDLLDGENLK [CDC25A] | 5.4 ± 0.21 | 5.52 ± 0.13
SQKVPLRRMCFVDPVRQCAECALV [ZFYVE21] | 2.21 ± 0.2 | 2.29 ± 0.23
SQSLCLNKPTMSFKDYIQERSDPV [ETS2] | 3.54 ± 0.32 | 3.67 ± 0.53
SRRVIAANNRILAERIAKEIQVIP [IMPA1] | 2.46 ± 0.34 | 2.69 ± 0.12
SRTQEPSLGKQKVFIIRKSLLDEL [SOAT2] | 2.04 ± 0.31 | 2.23 ± 0.34
SRTSCRLSGGLGAGSCRLGSAGGL [KRT17] | 2.33 ± 0.44 | 2.23 ± 0.36

Sequence | protein stability index (treatment: DMSO) | protein stability index (treatment: MLN4924 1 uM, 8 h)
SRVKGSAPEIDPSSDGSNFGWETK [KMT2E] | 4.83 ± 0.4 | 4.83 ± 0.15
SSALSQSGGGSTSAAGIEARSRAL [SPACA3] | 4.76 ± 0.41 | 4.82 ± 0.064
SSGEDKENDGFVFKMPWKPTHPSS [CDC25B] | 3.92 ± 0.22 | 4.16 ± 0.25
SSPAGLSREYKLVMLGAGGVGKSA [RIT1] | 3.17 ± 0.62 | 2.96 ± 0.22
SSPQGVQLDIASQSLDQEILLKVK [BCL2L13] | 3.58 ± 0.4 | 3.83 ± 0.1
SSRLPQPSGAGKTVVGVPSGKVSS [ZC2HC1A] | 4.62 ± 0.13 | 4.81 ± 0.12
SSVQKALFEEEDHVKKLQQKVATL [CCDC3] | 4.46 ± 0.33 | 4.49 ± 0.32
STHLTVHRRIHTGEKPYECQDCGR [ZNF8] | 3.9 ± 0.32 | 4.1 ± 0.52
STQIRALTEQQEQLRGQLQDLDSR [RASAL3] | 5.14 ± 0.27 | 5.12 ± 0.19
SVAPMNVRRGLAGATTLGDMIYVS [KLHL12] | 2.78 ± 0.53 | 2.96 ± 0.5
SVGGVPGGTGSGDGNKIFLCHCGK [ZBTB22] | 3.51 ± 0.19 | 3.73 ± 0.47
SVPIVYEKYKTQIDHYVGIARDQT [RTN3] | 2.89 ± 0.36 | 3.06 ± 0.09
SVSLDRCIKIWDVTSQATLLTITK [WDR88] | 2.43 ± 0.2 | 2.43 ± 0.21
SVSNSTQTSSSSSQSETSSAVSTP [DLC1] | 5.5 ± 0.1 | 5.43 ± 0.23
SWTGDGWEFKLSDPDEVARRWGKR [ETS1] | 3.73 ± 0.062 | 3.88 ± 0.25
SWTTVTSMTTPRCYVGATVLRGRL [KLHL12] | 2.23 ± 0.15 | 2.24 ± 0.35
TALPPMNEARHNFGIVEIDGMLYI [GAN] | 2.24 ± 0.31 | 2.08 ± 0.26
TASDSESRAESAPLPVSADDTPEV [CDS2] | 5.48 ± 0.45 | 5.36 ± 0.38
TASLIEDIDKKHLVLLRDGRTLIG [LSM1] | 2.83 ± 0.15 | 2.62 ± 0.32
TCSNKKALLKFKPGAFIAGVPVQP [LPCAT4] | 2.85 ± 0.4 | 3.03 ± 0.19
